This is an account of results in paper PMC11931385, “Structural and functional analysis of cancer-associated missense variants in the retinoblastoma protein pocket domain” (The Journal of Biological Chemistry, 2025).

Common to all, as to experiment: fluorescence polarisation; 25 °C; unlabeled Rb^P titrated against 1.5 nM TMR-E2F1^TD or 7.5 nM TMR-E7^LxCxE; 25 mM Tris pH 8.0, 200 mM NaCl, 1 mM DTT, 0.1% Tween-20; 2 min incubation; quadratic fit; apparent Kd for the variants, Kd for WT
Holding throughout (settings): both partners purified
In general terms: Polarisation of emitted light reports the rotation of a fluorescent probe.

One assay addresses T1, Rb^P S612P (human, UniProt P06400 380-788, S612P).
T1 construct: also called variant 39
T1 sequence (looked up): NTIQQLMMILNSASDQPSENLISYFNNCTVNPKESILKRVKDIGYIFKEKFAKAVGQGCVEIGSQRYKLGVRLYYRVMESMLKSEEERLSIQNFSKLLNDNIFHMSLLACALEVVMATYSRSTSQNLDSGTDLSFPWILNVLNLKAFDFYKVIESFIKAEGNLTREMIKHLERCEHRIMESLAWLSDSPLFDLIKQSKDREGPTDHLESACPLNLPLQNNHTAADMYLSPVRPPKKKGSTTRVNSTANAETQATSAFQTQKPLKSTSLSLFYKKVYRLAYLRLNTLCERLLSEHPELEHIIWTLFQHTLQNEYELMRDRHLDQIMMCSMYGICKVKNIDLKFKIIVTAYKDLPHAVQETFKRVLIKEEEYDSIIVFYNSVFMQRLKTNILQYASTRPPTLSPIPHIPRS

For another assay, the target named is T2, Rb^P T638S (human, UniProt P06400 380-788, T638S).
T2 construct: also called variant 45
T2 sequence (looked up): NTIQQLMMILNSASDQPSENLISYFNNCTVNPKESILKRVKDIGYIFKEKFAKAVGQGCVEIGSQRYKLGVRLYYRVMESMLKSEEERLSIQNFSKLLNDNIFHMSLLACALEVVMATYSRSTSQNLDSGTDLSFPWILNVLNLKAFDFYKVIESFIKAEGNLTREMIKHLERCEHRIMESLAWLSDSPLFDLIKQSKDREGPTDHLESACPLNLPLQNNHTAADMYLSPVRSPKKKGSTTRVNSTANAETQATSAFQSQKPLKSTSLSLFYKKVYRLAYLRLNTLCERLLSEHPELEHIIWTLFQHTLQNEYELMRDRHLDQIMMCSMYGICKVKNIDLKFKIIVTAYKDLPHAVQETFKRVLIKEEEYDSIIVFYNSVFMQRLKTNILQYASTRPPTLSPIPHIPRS

In a further assay the target is T3, Rb^P S474N (human, UniProt P06400 380-788, S474N).
T3 construct: also called variant 12
T3 sequence (looked up): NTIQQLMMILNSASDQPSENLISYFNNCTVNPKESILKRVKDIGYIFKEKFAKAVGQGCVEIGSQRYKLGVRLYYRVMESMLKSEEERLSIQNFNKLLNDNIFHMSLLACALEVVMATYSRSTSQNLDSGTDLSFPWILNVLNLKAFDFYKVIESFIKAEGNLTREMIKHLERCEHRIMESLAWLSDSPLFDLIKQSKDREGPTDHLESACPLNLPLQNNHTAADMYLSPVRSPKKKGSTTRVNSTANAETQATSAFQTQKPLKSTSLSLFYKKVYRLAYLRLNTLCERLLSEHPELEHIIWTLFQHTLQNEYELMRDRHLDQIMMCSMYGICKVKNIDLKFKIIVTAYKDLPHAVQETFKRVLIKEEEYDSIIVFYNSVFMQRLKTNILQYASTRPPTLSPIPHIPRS

Another assay has as its target T4, Rb^P E440K (human, UniProt P06400 380-788, E440K).
T4 construct: also called variant 1
T4 sequence (looked up): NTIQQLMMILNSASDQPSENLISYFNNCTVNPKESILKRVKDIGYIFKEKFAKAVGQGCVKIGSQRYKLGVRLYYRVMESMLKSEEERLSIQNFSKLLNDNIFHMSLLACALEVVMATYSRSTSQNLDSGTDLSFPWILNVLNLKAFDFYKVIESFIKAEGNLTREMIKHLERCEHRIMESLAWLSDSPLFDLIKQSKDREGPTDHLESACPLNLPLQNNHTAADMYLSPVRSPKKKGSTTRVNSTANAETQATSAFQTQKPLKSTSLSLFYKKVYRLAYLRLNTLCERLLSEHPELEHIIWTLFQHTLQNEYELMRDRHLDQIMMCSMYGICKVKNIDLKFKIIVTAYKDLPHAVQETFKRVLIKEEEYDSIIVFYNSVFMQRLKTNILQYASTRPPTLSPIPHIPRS

Another assay has as its target T5, Rb^P R656W (human, UniProt P06400 380-788, R656W).
T5 construct: also called variant 49
T5 sequence (looked up): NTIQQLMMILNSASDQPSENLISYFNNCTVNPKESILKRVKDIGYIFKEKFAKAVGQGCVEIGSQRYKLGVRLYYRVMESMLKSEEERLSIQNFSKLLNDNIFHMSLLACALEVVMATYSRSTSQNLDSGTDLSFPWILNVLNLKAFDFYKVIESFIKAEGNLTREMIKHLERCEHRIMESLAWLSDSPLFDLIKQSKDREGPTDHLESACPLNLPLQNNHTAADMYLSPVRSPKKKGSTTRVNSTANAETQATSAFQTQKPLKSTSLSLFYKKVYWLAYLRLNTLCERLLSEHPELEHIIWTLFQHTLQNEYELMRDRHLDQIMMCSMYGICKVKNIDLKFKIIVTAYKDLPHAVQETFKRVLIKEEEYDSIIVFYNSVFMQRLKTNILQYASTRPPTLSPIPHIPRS

No end group written: not given here. TMR = tetramethyl rhodamine dye

B1: TMR-E2F1^TD, peptide of the E2F1 transactivation domain (peptide)
peptide: {TMR}-GEGIRDLFDCDFGDLTPLD
notes: also called E2F^TD; source: synthetic peptide, bought: GenScript
Consider B1, for which the Kd is 32 nM with Rb^P S612P; 14 nM in the assay with Rb^P T638S; 19 nM with Rb^P S474N; 12 nM in the assay with Rb^P E440K; 39 nM with Rb^P R656W.

B2: TMR-E7^LxCxE, LxCxE peptide of the E7 oncoprotein from HPV (peptide)
peptide: DLYCYEQLN
modifications: also: TMR label, position not given here
notes: source: synthetic peptide, bought: GenScript
Consider B2, for which the Kd with Rb^P S612P was 7 nM; with Rb^P T638S, 7 nM; with Rb^P S474N, 8 nM; in the assay with Rb^P E440K, 5 nM; in the assay with Rb^P R656W, 8 nM.
